Data: patent US20230093399A1, “METHODS FOR GENERATING PLURIPOTENT STEM CELL-DERIVED BROWN FAT CELLS” (AgeX Therapeutics, Inc., priority 2013, published 2023)

Tested on: NP110SM cells
Test: Differentiation of clonal embryonic progenitor line NP110SM in HyStem beads, Illumina microarray gene expression
Assay type: cell-based, human
Procedure: Differentiation medium is high glucose DMEM (CellGro Cat. No. 15-013-CV) with Pyruvate, 1 mM (Gibco Cat. 11360), Pen:Strep 100U/ml:100 ug/ml (Gibco Cat. No. 504284), Glutamax 2 mM (Gibco Cat. No. 35050), Dexamethasone 0.1 uM (Sigma, St. Louis, Mo., Cat. No. D1756-100), L-Proline 0.35 mM (Sigma Cat. No. D49752), 2-phospho-L-Ascorbic Acid 0.17 mM (Sigma, Cat. No. 49792, Fluka), and ITS Premix (BD, Franklin Lakes, N.J., sterile Cat. No. 47743-628) with a final concentration 6.25 ug/ml insulin, 6.25 ug/ml transferrin, 6.25 ng/ml selenious acid, serum albumin 1.25 mg/ml, 5.35 ug/ml linoleic acid. In various differentiation conditions, the Differentiation medium is supplemented with various growth factors or other differentiation factors as described herein.
HyStem-C (BioTime, Inc. Alameda, Calif.) is a matrix composed of thiol-modified gelatin and thiolated hyaluronan crosslinked in vivo or in vitro with (polyethylene glycol diacrylate (PEGDA). We observed that clonal human embryonic progenitor cell lines such as those described in the present invention, could be efficiently differentiated in high-density cultures of said crosslinked collagen and hyaluronate in the following manner. HyStem-C® (BioTime, CA, USA) is reconstituted following the manufacturer's instructions. Briefly, the HyStem component (10 mg of thiol-modified hyaluronan) is dissolved in 1.0 ml of degassed deionized water for approximately 20 min to prepare a 1% w/v solution. The Gelin-S® component (10 mg of thiol-modified gelatin (BioTime)) is dissolved in 1.0 ml of degassed deionized water to prepare a 1% w/v solution, and polyethylene glycol diacrylate (10 mg of PEGDA) is dissolved in 0.5 ml of degassed deionized water to prepare a 2% w/v solution. Then, HyStem (1 ml, 1% w/v) is mixed with Gelin-S (1 ml, 1% w/v) immediately before use. Pelleted cells are resuspended in the recently prepared HyStem:Gelin-S (1:1 v/v) mix described above. Upon the addition of the PEGDA cross-linker, the cell suspension, at a final concentration of 2.0×10^7 cells/ml is aliquoted (25 μl/aliquot) into six-well plates (Corning® 3516; VWR, PA, USA) after partial gelation. Following complete gelation (20 min), Differentiation Medium is added to each well. Plates were then placed in a humidified incubator at 37° C. with ambient O2 and 10% CO2, and the cells were fed three-times weekly. At the desired time point, hydrogel constructs were either fixed and processed for immunohistochemical analysis or lysed using RLT (Qiagen, CA, USA) with 1% beta-mercaptoethanol for total RNA to analyze transcript expression using quantitative real-time PCR (qRT-PCR) and/or whole-genome microarray.
Total RNA was extracted directly from cells growing in 6-well plates or 10 cm tissue culture dishes using Qiagen RNeasy mini kits according to the manufacturer's instructions. RNA concentrations were measured using a Beckman DU530 or Nanodrop spectrophotometer and RNA quality was determined by denaturing agarose gel electrophoresis or using an Agilent 2100 bioanalyzer. Whole-genome expression analysis was carried out using Illumina Human Ref-8v3 or Human HT-12 v4 BeadArrays, and RNA levels for certain genes were confirmed by qRT-PCR. For the Illumina BeadArrays, total RNA was linearly amplified and biotin-labeled using Illumina TotalPrep kits (Life Technologies, Temecula, Calif., USA), and cRNA was quality-controlled using an Agilent 2100 Bioanalyzer. The cRNA was hybridized to Illumina BeadChips, processed, and read using a BeadStation array reader according to the manufacturer's instructions (Illumina, San Diego, Calif., USA). Values of less than 120 relative fluorescence units (RFUs) were considered as nonspecific background signal.
The line NP110SM was then exposed to differentiation in the BAT cell differentiation protocols described herein. […]

[1] = NP110SM, 14 days HyStem beads, 50 ng/ml BMP4, FIG. 15 sample 6

B1: BMP4: Bone Morphogenetic Protein 4, TGF-beta superfamily member (protein, UniProt P12644 293-408, looked up)
Bone morphogenetic protein 4: SPKHHSQRARKKNKNCRRHSLYVDFSDVGWNDWIVAPPGYQAFYCHGDCPFPLADHLNSTNHAIVQTLVNSVNSSIPKACCVPTELSAISMLYLDEYDKVVLKNYQEMVVEGCGCR
viability as measured by RNA yields and levels of the BAT markers (NP110SM, 50 ng/ml of BMP4, 5 μm rosiglitazone, embedded in HyStem beads, 14-21 days): highest viability
ADIPOQ expression [1]: markedly up-regulating
C19ORF80 expression [1]: markedly up-regulating
UCP1 expression [1]: low or undetectable level
expression of C19ORF80 transcript (NP110SM, HyStem beads supplemented with 10 ng/ml BMP4, FIG. 2): highest expression
viability of differentiating NP110SM cells as evidenced by RNA yields (addition of 50 ng/ml BMP4 to 5.0 μM rosiglitazone): appeared to improve the viability
